Key:
[1] = molecular target: EC-EGFR (soluble extracellular domain), disulfide-linked homodimer (human, UniProt P00533 25-645); experiment: filter binding; Filter binding: 1 nM radiolabeled RNA, PBS + 0.01% BSA, 15 min, 37 C (5 mM DTT for monomer); CL4sc background subtracted; pull-down: 200 nM aptamer on A549 cells 30 min RT, lysis in 10 mM Tris-HCl pH 7.5, 200 mM NaCl, 5 mM EDTA, 0.1% Triton X-100; settings: protein: commercial, chain copies: 2
[2] = molecular target: EC-ErbB3 (soluble extracellular domain), disulfide-linked homodimer (human, UniProt P21860 20-643); experiment: filter binding; 20 and 40 nM protein; Filter binding: 1 nM radiolabeled RNA, PBS + 0.01% BSA, 15 min, 37 C (5 mM DTT for monomer); CL4sc background subtracted; pull-down: 200 nM aptamer on A549 cells 30 min RT, lysis in 10 mM Tris-HCl pH 7.5, 200 mM NaCl, 5 mM EDTA, 0.1% Triton X-100; settings: protein: commercial, chain copies: 2
Sequence of EC-ErbB3 (soluble extracellular domain), disulfide-linked homodimer (P21860 20-643): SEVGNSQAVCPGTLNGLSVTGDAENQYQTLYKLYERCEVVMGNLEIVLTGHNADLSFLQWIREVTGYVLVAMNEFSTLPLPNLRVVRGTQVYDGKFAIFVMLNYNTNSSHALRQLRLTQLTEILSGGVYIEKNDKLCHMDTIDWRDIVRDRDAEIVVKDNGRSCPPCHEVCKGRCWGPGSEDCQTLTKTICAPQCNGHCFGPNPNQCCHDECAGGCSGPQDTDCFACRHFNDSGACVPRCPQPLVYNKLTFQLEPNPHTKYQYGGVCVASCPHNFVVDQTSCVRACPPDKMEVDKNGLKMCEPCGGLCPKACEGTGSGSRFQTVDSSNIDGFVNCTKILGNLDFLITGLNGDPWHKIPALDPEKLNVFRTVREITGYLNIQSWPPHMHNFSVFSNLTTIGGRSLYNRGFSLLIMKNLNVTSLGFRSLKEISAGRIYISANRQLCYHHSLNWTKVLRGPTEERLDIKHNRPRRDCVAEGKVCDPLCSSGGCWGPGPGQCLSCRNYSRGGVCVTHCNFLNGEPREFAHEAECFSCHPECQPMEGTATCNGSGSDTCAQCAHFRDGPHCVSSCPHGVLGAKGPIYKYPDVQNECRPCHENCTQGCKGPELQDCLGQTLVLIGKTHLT

For GCCUUAGUAACGUGCUUUGAUGUCGAUUCGACAGGAGGC (structured_RNA, 2'-fluoro pyrimidines) [CL4], the Kd [1] was 10 nM and the binding result [2] was “no binding”.

From article PMC3167817, “A Neutralizing RNA Aptamer against EGFR Causes Selective Apoptotic Cell Death”
